Assay results from patent publication US20240383996A1 (SHANGHAI HENLIUS BIOTECH, published 2024).

Tests used:
[1] = target: T1, Human OX40 expressed on transfected Jurkat or CHO cells (human, UniProt P43489 29-277); test: flow cytometry, whole cell binding to human OX40-expressing Jurkat cells, Alexa Fluor488 anti-human IgG Fc, Geo MFI
T1 construct: also called human OX40/Jurkat; human OX40/CHO
T1 sequence: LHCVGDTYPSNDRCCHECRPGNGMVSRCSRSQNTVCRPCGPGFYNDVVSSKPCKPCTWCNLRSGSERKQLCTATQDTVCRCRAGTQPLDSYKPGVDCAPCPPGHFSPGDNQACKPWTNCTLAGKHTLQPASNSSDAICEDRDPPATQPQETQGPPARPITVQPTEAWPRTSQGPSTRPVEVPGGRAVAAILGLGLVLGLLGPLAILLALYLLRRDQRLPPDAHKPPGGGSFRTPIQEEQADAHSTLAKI

[2] = target: T2, Fc-fused mouse OX40 ECD (mouse, UniProt P47741 20-211); test: ELISA: plate coated with Fc-fused mouse OX40 ECD, biotin-labeled c5E10, HRP-avidin, OD450
T2 construct: extracellular domain; also called recombinant mouse OX40 ECD; not shown: Fc
T2 sequence (looked up): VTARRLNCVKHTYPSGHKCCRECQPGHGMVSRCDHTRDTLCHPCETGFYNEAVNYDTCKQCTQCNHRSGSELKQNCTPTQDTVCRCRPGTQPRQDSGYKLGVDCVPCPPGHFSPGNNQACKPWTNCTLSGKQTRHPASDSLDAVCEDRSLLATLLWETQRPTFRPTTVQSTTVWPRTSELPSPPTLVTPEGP
Description: The protein was expressed in ExpiCHO cells, and purified by Protein A affinity chromatography. […] Briefly, 1 μg/ml of Fc-fused human or mouse OX40 ECD was coated in a 96-well high binding plate at 4° C. overnight.

[3] = target: T3, Human CTLA4 expressed on transfected CHO or Jurkat cells (human, UniProt P16410 36-222); test: flow cytometry, whole cell binding to human CTLA4-expressing CHO cells, Alexa Fluor488 anti-human IgG Fc, Geo MFI
T3 construct: also called human CTLA4/CHO; human CTLA4/Jurkat
T3 sequence: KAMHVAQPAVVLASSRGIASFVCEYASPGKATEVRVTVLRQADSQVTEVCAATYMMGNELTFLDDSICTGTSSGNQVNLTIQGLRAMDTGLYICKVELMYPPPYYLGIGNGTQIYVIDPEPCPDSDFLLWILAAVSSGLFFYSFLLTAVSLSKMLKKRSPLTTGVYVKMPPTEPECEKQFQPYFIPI

[4] = target: T4, Recombinant human OX40 extracellular domain fused to human IgG1 Fc (human, UniProt P43489 29-214); test: ELISA of VHH supernatants on plates pre-coated with human OX40 ECD-Fc or human OX40 ECD-His
T4 construct: Produced in-house; also called OX40 ECD-Fc; human OX40 ECD-Fc; not shown: human IgG1 Fc
T4 sequence: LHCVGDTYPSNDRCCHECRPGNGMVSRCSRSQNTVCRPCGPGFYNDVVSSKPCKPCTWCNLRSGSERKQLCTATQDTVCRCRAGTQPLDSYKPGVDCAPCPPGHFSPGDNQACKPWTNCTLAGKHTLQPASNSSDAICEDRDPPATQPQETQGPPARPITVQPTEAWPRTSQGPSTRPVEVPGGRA

B1: Ipilimumab (anti-CTLA4 antibody) (antibody, V domains shown)
VH: QVQLVESGGGVVQPGRSLRLSCAASGFTFSSYTMHWVRQAPGKGLEWVTFISYDGNNKYYADSVKGRFTISRDNSKNTLYLQMNSLRAEDTAIYYCARTGWLGPFDYWGQGTLVTVSS
VL: not shown
- binding result [1]: no binding

B2: c5E10 chimeric bivalent antibody (llama VHH clone 5E10 fused to human IgG1 Fc) (antibody, V domains shown)
VH: QVKLEESGGGSVQSGGSLRLACSASGPLGYPSIAWFRQVTGKDQEFVAGIAWSGGDTYYADSVKGRFAISRDTDRNTVELQMNNLKPEDTAVYYCAADTVVHYMGRHDIRDREEYDHWGQGTQVTVSS
notes: Bivalent VHH-Fc, human IgG1 Fc; also called c5E10-Fc; c5E10-bi
- binding result [2]: no binding
- binding result [3]: no binding

B3: 5E10 llama VHH (VHH)
VHH: QVKLEESGGGSVQSGGSLRLACSASGPLGYPSIAWFRQVTGKDQEFVAGIAWSGGDTYYADSVKGRFAISRDTDRNTVELQMNNLKPEDTAVYYCAADTVVHYMGRHDIRDREEYDHWGPGTQVTVSS
notes: VHH secreted into the culture supernatant from phagemid pADL-23c; also called c5E10 VHH
- binding result [4]: binds
